Experimental findings from paper PMC6451123, “The G3-U70-independent tRNA recognition by human mitochondrial alanyl-tRNA synthetase” (Nucleic Acids Research, 2019) are described below.

The data set concerns the molecule itself. Nature of the data set: SEC; gel filtration of the purified enzyme; apparent molecular mass from the elution volumes of three standard proteins (apoferritin 443 kDa, yeast alcohol dehydrogenase 150 kDa, bovine serum albumin 66 kDa). (In general: In gel filtration, larger molecules generally elute earlier.)

B1: E. coli AlaRS (enzyme, UniProt P00957 1-876, looked up)
chain: MSKSTAEIRQAFLDFFHSKGHQVVASSSLVPHNDPTLLFTNAGMNQFKDVFLGLDKRNYSRATTSQRCVRAGGKHNDLENVGYTARHHTFFEMLGNFSFGDYFKHDAIQFAWELLTSEKWFALPKERLWVTVYESDDEAYEIWEKEVGIPRERIIRIGDNKGAPYASDNFWQMGDTGPCGPCTEIFYDHGDHIWGGPPGSPEEDGDRYIEIWNIVFMQFNRQADGTMEPLPKPSVDTGMGLERIAAVLQHVNSNYDIDLFRTLIQAVAKVTGATDLSNKSLRVIADHIRSCAFLIADGVMPSNENRGYVLRRIIRRAVRHGNMLGAKETFFYKLVGPLIDVMGSAGEDLKRQQAQVEQVLKTEEEQFARTLERGLALLDEELAKLSGDTLDGETAFRLYDTYGFPVDLTADVCRERNIKVDEAGFEAAMEEQRRRAREASGFGADYNAMIRVDSASEFKGYDHLELNGKVTALFVDGKAVDAINAGQEAVVVLDQTPFYAESGGQVGDKGELKGANFSFAVEDTQKYGQAIGHIGKLAAGSLKVGDAVQADVDEARRARIRLNHSATHLMHAALRQVLGTHVSQKGSLVNDKVLRFDFSHNEAMKPEEIRAVEDLVNTQIRRNLPIETNIMDLEAAKAKGAMALFGEKYDERVRVLSMGDFSTELCGGTHASRTGDIGLFRIISESGTAAGVRRIEAVTGEGAIATVHADSDRLSEVAHLLKGDSNNLADKVRSVLERTRQLEKELQQLKEQAAAQESANLSSKAIDVNGVKLLVSELSGVEPKMLRTMVDDLKNQLGSTIIVLATVVEGKVSLIAGVSKDVTDRVKAGELIGMVAQQVGGKGGGRPDMAQAGGTDAAALPAALASVKGWVSAKLQ
notes: Escherichia coli alanyl-tRNA synthetase; calculated molecular mass of 96 kDa; Construct, tags and host are not described; The calculated mass of 96 kDa would fit the whole protein; also called EcAlaRS; source: purified
Consider B1, for which the binding result was “binds”.
